{"source": "patent US20170209564A1", "binders": {"B1": {"name": "CR6261 (antibody, V domains shown)", "VH": "EVQLVESGAEVKKPGSSVKVSCKASGGPFRSYAISWVRQAPGQGPEWMGGIIPIFGTTKYAPKFQGRVTITADDFAGTVYMELSSLRSEDTAMYYCAKHMGYQVRETMDVWGKGTTVTVSS", "VL": "QSVLTQPPSVSAAPGQKVTISCSGSSSNIGNDYVSWYQQLPGTAPKLLIYDNNKRPSGIPDRFSGSKSGTSATLGITGLQTGDEANYYCATWDRRPTAYVVFGGGTKLTVLG"}}, "conditions_in_all_cases": "remark: other sources report otherwise", "key": {"s55G7": {"target": "s55G7", "assay": "apparent Kd (Kd^app), purified polypeptide; method not stated"}, "s127H1": {"target": "s127H1", "assay": "apparent Kd (Kd^app), purified polypeptide; method not stated"}, "s6E12": {"target": "s6E12", "assay": "apparent Kd (Kd^app), purified polypeptide; method not stated"}, "s86B4": {"target": "s86B4", "assay": "apparent Kd (Kd^app), purified polypeptide; method not stated"}, "86G3": {"target": "86G3", "assay": "ELISA signal over HTRF expression signal, P. pastoris"}, "36E4": {"target": "36E4", "assay": "ELISA signal over HTRF expression signal, P. pastoris"}, "71E7": {"target": "71E7", "assay": "ELISA signal over HTRF expression signal, P. pastoris"}, "78G2": {"target": "78G2", "assay": "ELISA signal over HTRF expression signal, P. pastoris"}, "84E10": {"target": "84E10", "assay": "ELISA signal over HTRF expression signal, P. pastoris"}, "91C8": {"target": "91C8", "assay": "ELISA signal over HTRF expression signal, P. pastoris"}, "63C3": {"target": "63C3", "assay": "ELISA signal over HTRF expression signal, P. pastoris"}, "91C4": {"target": "91C4", "assay": "ELISA signal over HTRF expression signal, P. pastoris"}, "96G5": {"target": "96G5", "assay": "ELISA signal over HTRF expression signal, P. pastoris"}, "75G5": {"target": "75G5", "assay": "ELISA signal over HTRF expression signal, P. pastoris"}, "71D3": {"target": "71D3", "assay": "ELISA signal over HTRF expression signal, P. pastoris"}, "84B8": {"target": "84B8", "assay": "ELISA signal over HTRF expression signal, P. pastoris"}, "71C4": {"target": "71C4", "assay": "ELISA signal over HTRF expression signal, P. pastoris"}, "86B4": {"target": "86B4", "assay": "ELISA signal over HTRF expression signal, P. pastoris"}, "56F4": {"target": "56F4", "assay": "ELISA signal over HTRF expression signal, P. pastoris"}, "10F9": {"target": "10F9", "assay": "ELISA signal over HTRF expression signal, P. pastoris"}, "51G3": {"target": "51G3", "assay": "ELISA signal over HTRF expression signal, P. pastoris"}, "9C10": {"target": "9C10", "assay": "ELISA signal over HTRF expression signal, P. pastoris"}, "86B3": {"target": "86B3", "assay": "ELISA signal over HTRF expression signal, P. pastoris"}, "90A9": {"target": "90A9", "assay": "ELISA signal over HTRF expression signal, P. pastoris"}, "26H1": {"target": "26H1", "assay": "ELISA signal over HTRF expression signal, P. pastoris"}, "11B4": {"target": "11B4", "assay": "ELISA signal over HTRF expression signal, P. pastoris"}, "36D6": {"target": "36D6", "assay": "ELISA signal over HTRF expression signal, P. pastoris"}, "96H8": {"target": "96H8", "assay": "ELISA signal over HTRF expression signal, P. pastoris"}, "850": {"target": "850", "assay": "ELISA signal over HTRF expression signal, P. pastoris"}, "96A7": {"target": "96A7", "assay": "ELISA signal over HTRF expression signal, P. pastoris"}, "55H2": {"target": "55H2", "assay": "ELISA signal over HTRF expression signal, P. pastoris"}, "6E12": {"target": "6E12", "assay": "ELISA signal over HTRF expression signal, P. pastoris"}, "56F8": {"target": "56F8", "assay": "ELISA signal over HTRF expression signal, P. pastoris"}, "8A10": {"target": "8A10", "assay": "ELISA signal over HTRF expression signal, P. pastoris"}, "74H9": {"target": "74H9", "assay": "ELISA signal over HTRF expression signal, P. pastoris"}, "67C10": {"target": "67C10", "assay": "ELISA signal over HTRF expression signal, P. pastoris"}, "70F6": {"target": "70F6", "assay": "ELISA signal over HTRF expression signal, P. pastoris"}, "84D3": {"target": "84D3", "assay": "ELISA signal over HTRF expression signal, P. pastoris"}}}
{"binder": "B1", "values": [{"measurement": "Kd", "setting": "s55G7", "value": 150, "unit": "nM"}, {"measurement": "Kd", "setting": "s127H1", "value": 130, "unit": "nM"}, {"measurement": "Kd", "setting": "s6E12", "value": 390, "unit": "nM"}, {"measurement": "Kd", "setting": "s86B4", "value": 150, "unit": "nM"}, {"measurement": "fold increase of ratio over parental SEQ ID NO: 6", "setting": "86G3", "value": 3.87}, {"measurement": "ratio (binding signal/HTRF signal)", "setting": "86G3", "value": 23}, {"measurement": "fold increase of ratio over parental SEQ ID NO: 6", "setting": "36E4", "value": 2.07}, {"measurement": "ratio (binding signal/HTRF signal)", "setting": "36E4", "value": 12.3}, {"measurement": "fold increase of ratio over parental SEQ ID NO: 6", "setting": "71E7", "value": 3.19}, {"measurement": "ratio (binding signal/HTRF signal)", "setting": "71E7", "value": 19}, {"measurement": "fold increase of ratio over parental SEQ ID NO: 6", "setting": "78G2", "value": 1.58}, {"measurement": "ratio (binding signal/HTRF signal)", "setting": "78G2", "value": 9.36}, {"measurement": "fold increase of ratio over parental SEQ ID NO: 6", "setting": "84E10", "value": 5.37}, {"measurement": "ratio (binding signal/HTRF signal)", "setting": "84E10", "value": 31.9}, {"measurement": "fold increase of ratio over parental SEQ ID NO: 6", "setting": "91C8", "value": 3.51}, {"measurement": "ratio (binding signal/HTRF signal)", "setting": "91C8", "value": 20.8}, {"measurement": "fold increase of ratio over parental SEQ ID NO: 6", "setting": "63C3", "value": 4.15}, {"measurement": "ratio (binding signal/HTRF signal)", "setting": "63C3", "value": 24.7}, {"measurement": "fold increase of ratio over parental SEQ ID NO: 6", "setting": "91C4", "value": 4.35}, {"measurement": "ratio (binding signal/HTRF signal)", "setting": "91C4", "value": 25.8}, {"measurement": "fold increase of ratio over parental SEQ ID NO: 6", "setting": "96G5", "value": 2.4}, {"measurement": "ratio (binding signal/HTRF signal)", "setting": "96G5", "value": 14.3}, {"measurement": "fold increase of ratio over parental SEQ ID NO: 6", "setting": "75G5", "value": 6.38}, {"measurement": "ratio (binding signal/HTRF signal)", "setting": "75G5", "value": 37.9}, {"measurement": "fold increase of ratio over parental SEQ ID NO: 6", "setting": "71D3", "value": 5.67}, {"measurement": "ratio (binding signal/HTRF signal)", "setting": "71D3", "value": 33.7}, {"measurement": "fold increase of ratio over parental SEQ ID NO: 6", "setting": "84B8", "value": 9.71}, {"measurement": "ratio (binding signal/HTRF signal)", "setting": "84B8", "value": 57.7}, {"measurement": "fold increase of ratio over parental SEQ ID NO: 6", "setting": "71C4", "value": 5.13}, {"measurement": "ratio (binding signal/HTRF signal)", "setting": "71C4", "value": 30.4}, {"measurement": "fold increase of ratio over parental SEQ ID NO: 6", "setting": "86B4", "value": 13.1}, {"measurement": "ratio (binding signal/HTRF signal)", "setting": "86B4", "value": 77.7}, {"measurement": "fold increase of ratio over parental SEQ ID NO: 6", "setting": "56F4", "value": 3.21}, {"measurement": "ratio (binding signal/HTRF signal)", "setting": "56F4", "value": 19.1}, {"measurement": "fold increase of ratio over parental SEQ ID NO: 6", "setting": "10F9", "value": 3.93}, {"measurement": "ratio (binding signal/HTRF signal)", "setting": "10F9", "value": 23.3}, {"measurement": "fold increase of ratio over parental SEQ ID NO: 6", "setting": "51G3", "value": 9.97}, {"measurement": "ratio (binding signal/HTRF signal)", "setting": "51G3", "value": 59.2}, {"measurement": "fold increase of ratio over parental SEQ ID NO: 6", "setting": "9C10", "value": 2.91}, {"measurement": "ratio (binding signal/HTRF signal)", "setting": "9C10", "value": 17.3}, {"measurement": "fold increase of ratio over parental SEQ ID NO: 6", "setting": "86B3", "value": 10.5}, {"measurement": "ratio (binding signal/HTRF signal)", "setting": "86B3", "value": 62.4}, {"measurement": "fold increase of ratio over parental SEQ ID NO: 6", "setting": "90A9", "value": 7.72}, {"measurement": "ratio (binding signal/HTRF signal)", "setting": "90A9", "value": 45.8}, {"measurement": "fold increase of ratio over parental SEQ ID NO: 6", "setting": "26H1", "value": 1.62}, {"measurement": "ratio (binding signal/HTRF signal)", "setting": "26H1", "value": 9.64}, {"measurement": "fold increase of ratio over parental SEQ ID NO: 6", "setting": "11B4", "value": 3.23}, {"measurement": "ratio (binding signal/HTRF signal)", "setting": "11B4", "value": 19.2}, {"measurement": "fold increase of ratio over parental SEQ ID NO: 6", "setting": "36D6", "value": 1.83}, {"measurement": "ratio (binding signal/HTRF signal)", "setting": "36D6", "value": 10.8}, {"measurement": "fold increase of ratio over parental SEQ ID NO: 6", "setting": "96H8", "value": 4.8}, {"measurement": "ratio (binding signal/HTRF signal)", "setting": "96H8", "value": 28.5}, {"measurement": "fold increase of ratio over parental SEQ ID NO: 6", "setting": "850", "value": 4.07}, {"measurement": "ratio (binding signal/HTRF signal)", "setting": "850", "value": 24.2}, {"measurement": "fold increase of ratio over parental SEQ ID NO: 6", "setting": "96A7", "value": 1.85}, {"measurement": "ratio (binding signal/HTRF signal)", "setting": "96A7", "value": 11}, {"measurement": "fold increase of ratio over parental SEQ ID NO: 6", "setting": "55H2", "value": 3.28}, {"measurement": "ratio (binding signal/HTRF signal)", "setting": "55H2", "value": 19.5}, {"measurement": "fold increase of ratio over parental SEQ ID NO: 6", "setting": "6E12", "value": 2.85}, {"measurement": "ratio (binding signal/HTRF signal)", "setting": "6E12", "value": 16.9}, {"measurement": "fold increase of ratio over parental SEQ ID NO: 6", "setting": "56F8", "value": 3.65}, {"measurement": "ratio (binding signal/HTRF signal)", "setting": "56F8", "value": 21.7}, {"measurement": "fold increase of ratio over parental SEQ ID NO: 6", "setting": "8A10", "value": 6.29}, {"measurement": "ratio (binding signal/HTRF signal)", "setting": "8A10", "value": 37.4}, {"measurement": "fold increase of ratio over parental SEQ ID NO: 6", "setting": "74H9", "value": 6.09}, {"measurement": "ratio (binding signal/HTRF signal)", "setting": "74H9", "value": 36.1}, {"measurement": "fold increase of ratio over parental SEQ ID NO: 6", "setting": "67C10", "value": 3.99}, {"measurement": "ratio (binding signal/HTRF signal)", "setting": "67C10", "value": 23.7}, {"measurement": "fold increase of ratio over parental SEQ ID NO: 6", "setting": "70F6", "value": 1.63}, {"measurement": "ratio (binding signal/HTRF signal)", "setting": "70F6", "value": 9.66}, {"measurement": "fold increase of ratio over parental SEQ ID NO: 6", "setting": "84D3", "value": 4.87}, {"measurement": "ratio (binding signal/HTRF signal)", "setting": "84D3", "value": 28.9}]}
